These are literature values, as cited in publication PMC8869670.

The target of this data set is Thioredoxin (Homo sapiens) (UniProt P10599).
Sequence of Thioredoxin (Homo sapiens) (P10599 2-105): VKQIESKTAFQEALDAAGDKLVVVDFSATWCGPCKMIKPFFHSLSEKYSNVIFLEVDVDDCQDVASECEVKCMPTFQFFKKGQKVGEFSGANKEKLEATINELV

Take p53 (from UniProt P04637): the dissociation constant (Kd) was 900 nM.

A word on the Kd: it is the free concentration of one partner at which half of the binding sites on the other are occupied at equilibrium, for simple one-to-one binding.
